This note sets out measurements from PMC2879519.

Experiment in all cases: fluorescence quenching titration
For data set [1], the target named is SMC2 hinge long (mSMC2h of mSMC2h4h-l);SMC4 hinge long (mSMC4h of mSMC2h4h-l) (mouse;mouse) (UniProt Q8CG48+Q8CG47).
For data set [2], the target named is SMC2 hinge long K566E;SMC4 hinge long K657E (mouse;mouse, UniProt Q8CG48;Q8CG47 492-680;581-766, K566E|K657E).
For data set [3], the target named is SMC2 hinge long K613E;SMC4 hinge long K698E (mouse;mouse, UniProt Q8CG48;Q8CG47 492-680;581-766, K613E|K698E).
Data set [4] concerns the target SMC2 hinge long K566E;SMC4 hinge long (mSMC4h of mSMC2h4h-l) (mouse;mouse, UniProt Q8CG48;Q8CG47 492-680;581-766, K566E|).
For data set [5], the target named is SMC2 hinge long (mSMC2h of mSMC2h4h-l);SMC4 hinge long (mSMC4h of mSMC2h4h-l) (mouse;mouse, UniProt Q8CG48;Q8CG47 492-680;581-766, |).
Sequence of SMC2 hinge long (mSMC2h of mSMC2h4h-l);SMC4 hinge long (mSMC4h of mSMC2h4h-l) (Q8CG48 492-680, chain 1 of 2): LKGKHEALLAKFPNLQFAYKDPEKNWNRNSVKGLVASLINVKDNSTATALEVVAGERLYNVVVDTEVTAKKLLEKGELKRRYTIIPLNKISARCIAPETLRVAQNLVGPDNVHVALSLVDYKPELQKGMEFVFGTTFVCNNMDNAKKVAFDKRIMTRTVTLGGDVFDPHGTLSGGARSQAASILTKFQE
Sequence of SMC2 hinge long (mSMC2h of mSMC2h4h-l);SMC4 hinge long (mSMC4h of mSMC2h4h-l) (Q8CG47 581-766, chain 2 of 2): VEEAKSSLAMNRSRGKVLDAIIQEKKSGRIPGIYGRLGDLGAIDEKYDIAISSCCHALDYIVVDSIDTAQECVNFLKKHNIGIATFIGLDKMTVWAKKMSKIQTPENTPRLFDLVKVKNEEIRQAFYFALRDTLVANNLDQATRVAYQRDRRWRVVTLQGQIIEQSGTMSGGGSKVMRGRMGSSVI

Sequence of SMC2 hinge long (mSMC2h of mSMC2h4h-l);SMC4 hinge long (mSMC4h of mSMC2h4h-l) (mouse;mouse) (Q8CG48 492-680, chain 1 of 2): as the sequence (Q8CG48 492-680, chain 1 of 2) above
Sequence of SMC2 hinge long (mSMC2h of mSMC2h4h-l);SMC4 hinge long (mSMC4h of mSMC2h4h-l) (mouse;mouse) (Q8CG47 581-766, chain 2 of 2): as the sequence (Q8CG47 581-766, chain 2 of 2) above
Sequence of SMC2 hinge long K566E;SMC4 hinge long (mSMC4h of mSMC2h4h-l) (Q8CG48 492-680 K566E, chain 1 of 2): as the sequence (Q8CG48 492-680, chain 1 of 2) above, with K75E counted along it
Sequence of SMC2 hinge long K566E;SMC4 hinge long (mSMC4h of mSMC2h4h-l) (Q8CG47 581-766, chain 2 of 2): as the sequence (Q8CG47 581-766, chain 2 of 2) above
Sequence of SMC2 hinge long K566E;SMC4 hinge long K657E (Q8CG48 492-680 K566E, chain 1 of 2): as the sequence (Q8CG48 492-680, chain 1 of 2) above, with K75E counted along it
Sequence of SMC2 hinge long K566E;SMC4 hinge long K657E (Q8CG47 581-766 K657E, chain 2 of 2): as the sequence (Q8CG47 581-766, chain 2 of 2) above, with K77E counted along it
Sequence of SMC2 hinge long K613E;SMC4 hinge long K698E (Q8CG48 492-680 K613E, chain 1 of 2): as the sequence (Q8CG48 492-680, chain 1 of 2) above, with K122E counted along it
Sequence of SMC2 hinge long K613E;SMC4 hinge long K698E (Q8CG47 581-766 K698E, chain 2 of 2): as the sequence (Q8CG47 581-766, chain 2 of 2) above, with K118E counted along it

As a reminder, the Kd is the constant that tells how readily two partners part at equilibrium. In turn, “CATCCTGTCCGCTGC / TTTTTTTTTTTTTTTGCAGCGGACAGGATG [30-mer ds-ssDNA-5']” registered a Kd in data set [1] of 1.77 µM.
In data set [1], “CATCCTGTCCGCTGC / CCGGAGAGCATCTCG / GCAGCGGACAGGATGTTTTTTTTTTTTTTTCGAGATGCTCTCCGG [45-mer ds-ss-dsDNA]” returned a Kd of 0.66 µM.
On the same count and under the same terms, to “CATCCTGTCCGCTGC / GCAGCGGACAGGATGTTTTTTTTTTTTTTT [30-mer ds-ssDNA-3']” belongs 1.55 µM.
Regarding TTTTTTTTTTTTTTTTTTTTTTTTTTTTTT (ssDNA) [30-mer ssDNA], the Kd in data set [2] was determined as 3.26 ± 0.58 µM; in data set [3], 2.95 ± 0.3 µM; in data set [4] it was 1.8 ± 0.08 µM; in data set [5], 0.45 ± 0.04 µM.
TTTTTTTTTTTTTTT (ssDNA) [15-mer ssDNA] yielded a Kd in data set [5] of 3.21 ± 0.14 µM.
